Common to all, as to assay: cell-based or functional assay
In assay [1] the target is HIV-1 Env of isolate 92UG024 (HIV-1).
The target in assay [2] is HIV-1 Env of isolate 92UG031 (HIV-1).
Assay [3] has as its target HIV-1 Env of isolate 92UG114 (HIV-1).
Assay [4] concerns the target HIV-1 Env of isolate 94UG103 (HIV-1).
The target in assay [5] is HIV-1 Env of isolate CMU02 (CRF01_AE), on pseudovirus (HIV-1).
Assay [6] addresses HIV-1 Env of isolate MGRM-A-011 (clade A), on pseudovirus (HIV-1).
Assay [7] addresses HIV-1 Env of isolate MGRM-A-014 (clade A), on pseudovirus (HIV-1).
Assay [8] deals with HIV-1 Env of isolate MGRM-C-022 (HIV-1).
Assay [9] addresses HIV-1 Env of isolate MGRM-Chronic-B-001 (HIV-1).
Assay [10] addresses HIV-1 Env of isolate MGRM-D-020 (HIV-1).
The target of assay [11] is HIV-1 Env of isolate MGRM-D-024 (subtype D), on pseudovirus (HIV-1).
Assay [12] concerns the target HIV-1 Env of isolate MGRM-F1-018 (subtype F), on pseudovirus (HIV-1).
Assay [13] deals with HIV-1 Env of isolate MGRM-G-025 (HIV-1).
Assay [14] has as its target HIV-1 JR-CSF Env N156A (HIV-1 (isolate JR-CSF)) (UniProt P20871).
Assay [15] has as its target HIV-1 JR-CSF Env R476A (HIV-1 (isolate JR-CSF)) (UniProt P20871).
In assay [16] the target is HIV-1 94UG103 envelope glycoprotein (Env) on pseudovirus (HIV-1).

Experimental findings from patent US20200024330A1 are described below.

5345_I01 (PGT-137) (antibody), sequence (VH): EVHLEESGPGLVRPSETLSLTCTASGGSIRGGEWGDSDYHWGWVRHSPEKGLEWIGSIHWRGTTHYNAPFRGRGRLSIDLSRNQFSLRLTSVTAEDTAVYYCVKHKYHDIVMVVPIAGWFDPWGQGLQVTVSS
5345_I01 (PGT-137) (antibody), sequence (VL): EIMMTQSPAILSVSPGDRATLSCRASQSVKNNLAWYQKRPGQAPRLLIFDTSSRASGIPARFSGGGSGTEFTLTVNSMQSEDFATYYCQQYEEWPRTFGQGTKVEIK
5329_C19 (PGT-136) (antibody), sequence (VH): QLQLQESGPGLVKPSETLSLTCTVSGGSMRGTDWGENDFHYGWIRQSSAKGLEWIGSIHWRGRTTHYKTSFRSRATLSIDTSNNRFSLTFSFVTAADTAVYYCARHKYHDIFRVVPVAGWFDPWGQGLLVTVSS
5329_C19 (PGT-136) (antibody), sequence (VL): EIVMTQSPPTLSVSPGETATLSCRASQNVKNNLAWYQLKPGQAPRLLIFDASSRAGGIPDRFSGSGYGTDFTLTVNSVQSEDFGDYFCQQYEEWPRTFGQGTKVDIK

In the case of 5114_A19 (PGT-128) (antibody), the IC50 in assay [1] is over 50 µg/mL; in assay [3], 0.083 µg/mL; in assay [8], 0.042 µg/mL; in assay [9] it was over 50 µg/mL; in [10], 0.011 µg/mL. Further, the neutralization IC50 in [2] is over 50 µg/mL; in assay [4] it was 0.011 µg/mL. In addition, the IC50, single-round pseudovirus neutralization in [5] was over 50 µg/mL; in assay [6], over 50 µg/mL; in assay [7], 0.007 µg/mL. The IC50, pseudovirus neutralization was 0.067 µg/mL in [11], 0.023 µg/mL in assay [12] and 0.017 µg/mL in [13]. For the same substance, the Fold IC50 increase relative to wild-type in assay [14] was determined as 0.4 fold; in [15] it was 0.7 fold.

As for 5136_H01 (PGT-131) (antibody), the IC50 in assay [1] is over 50 µg/mL; in assay [3], over 50 µg/mL; in [8], 0.78 µg/mL; in assay [9] it was over 50 µg/mL; in assay [10] it was over 50 µg/mL. For the same substance, the neutralization IC50 in assay [2] is over 50 µg/mL; in assay [4], 1.1 µg/mL. The IC50, single-round pseudovirus neutralization in [5] is over 50 µg/mL; in [6], over 50 µg/mL; in assay [7], 15.4 µg/mL. The IC50, pseudovirus neutralization was over 50 µg/mL in assay [11], over 50 µg/mL in assay [12] and 7.75 µg/mL in [13]. Moreover, the Fold IC50 increase relative to wild-type in [14] and in assay [15] was 1 fold in each case.

In turn, 5147_N06 (PGT-130) (antibody) yielded an IC50 (ug/ml), neutralizing activity in assay [16] of 0.635 µg/mL. Also, the IC50 in assay [1] is over 50 µg/mL; in assay [3], over 50 µg/mL; in assay [8], 0.127 µg/mL; in assay [9], over 50 µg/mL; in assay [10], 24.7 µg/mL. The figures for the neutralization IC50 in [2] and in assay [4] were over 50 µg/mL and 1.4 µg/mL, respectively. Also, the IC50, single-round pseudovirus neutralization is over 50 µg/mL in [5], over 50 µg/mL in assay [6] and 0.161 µg/mL in assay [7]. Besides, the IC50, pseudovirus neutralization in assay [11] is over 50 µg/mL; in assay [12], over 50 µg/mL; in assay [13], 8.45 µg/mL. In addition, the Fold IC50 increase relative to wild-type in assay [14] came out at 1.5 fold; in assay [15], 1.3 fold.

5329_C19 (PGT-136) (antibody): the IC50 in assay [1] is 0.052 µg/mL; in assay [3] it was over 50 µg/mL; in [8] it was over 50 µg/mL; in assay [9], over 50 µg/mL; in assay [10], over 50 µg/mL. Also, the neutralization IC50 in assay [2] and in assay [4] was over 50 µg/mL each time. Further, the IC50, single-round pseudovirus neutralization in assay [5], in assay [6] and in [7] was over 50 µg/mL throughout. Moreover, the IC50, pseudovirus neutralization in assay [11], in [12] and in [13] was over 50 µg/mL in each case.

As for 5343_B08 (PGT-135) (antibody), the IC50 in assay [1] was 0.01 µg/mL; in [3], 1.29 µg/mL; in assay [8], over 50 µg/mL; in assay [9] it was over 50 µg/mL; in [10] it was over 50 µg/mL. Also, the neutralization IC50 in assay [2] and in assay [4] was over 50 µg/mL each time. Moreover, the IC50, single-round pseudovirus neutralization was over 50 µg/mL in [5], over 50 µg/mL in assay [6] and 0.636 µg/mL in [7]. Besides, the figures for the IC50, pseudovirus neutralization in [11], in assay [12] and in [13] were over 50 µg/mL, over 50 µg/mL and 0.592 µg/mL, respectively. Besides, the figures for the Fold IC50 increase relative to wild-type in assay [14] and in assay [15] were 0.3 fold and 0.8 fold, respectively.

With 5345_I01 (PGT-137) (antibody), the IC50 was 0.106 µg/mL in [1]; over 50 µg/mL in assay [3]; over 50 µg/mL in assay [8]; over 50 µg/mL in assay [9]; over 50 µg/mL in assay [10]. The neutralization IC50 in assay [2] and in [4] was over 50 µg/mL throughout. Besides, the IC50, single-round pseudovirus neutralization was over 50 µg/mL in [5], over 50 µg/mL in [6] and 18.6 µg/mL in assay [7]. The IC50, pseudovirus neutralization in assay [11], in [12] and in [13] was over 50 µg/mL each time.
